From IntAct's records for PubMed 19898420

B1: Abscisic acid receptor PYL2 (Arabidopsis thaliana (Mouse-ear cress)), O80992 (parent)
chain: MSSSPAVKGLTDEEQKTLEPVIKTYHQFEPDPTTCTSLITQRIHAPASVVWPLIRRFDNPERYKHFVKRCRLISGDGDVGSVREVTVISGLPASTSTERLEFVDDDHRVLSFRVVGGEHRLKNYKSVTSVNEFLNQDSGKVYTVVLESYTVDIPEGNTEEDTKMFVDTVVKLNLQKLGVAATSAPMHDDE
B2: Abscisic acid receptor PYR1 (Arabidopsis thaliana (Mouse-ear cress)), O49686 (parent)
chain: MPSELTPEERSELKNSIAEFHTYQLDPGSCSSLHAQRIHAPPELVWSIVRRFDKPQTYKHFIKSCSVEQNFEMRVGCTRDVIVISGLPANTSTERLDILDDERRVTGFSIIGGEHRLTNYKSVTTVHRFEKENRIWTVVLESYVVDMPEGNSEDDTRMFADTVVKLNLQKLATVAEAMARNSGDGSGSQVT

Variants of: B1
Details: with HAB1, Q9CAJ0

| Variant | effect of a mutation on the interaction |
| --- | --- |
| H119A | decreasing interaction |
| R120A | decreasing interaction |

Variants of: B2
Details: with HAB1, Q9CAJ0

| Variant | effect of a mutation on the interaction |
| --- | --- |
| H115A | disrupting interaction |
